Results published in publication PMC5979958 (Scientific Reports, 2018).
“And” between values parts separate entries of the source, which are not always exact repeats. Equal values may be shown once.

What was measured:
[1] = tested on: MIF/CXCR4-dependent JVM-3 lymphocyte chemotaxis; experiment: inhibition of MIF-mediated JVM-3 B cell chemotaxis by RLR-containing peptides; type: cell-based, human; conditions: 16 nM WT-MIF, pre-incubated 30 min, migration 24 h, 3–12 replicates, 2–3 experiments
Description: (§1) Migration assays using the CXCR4-expressing JVM-3 B cell line were performed in a transmigration well as previously described[32] using the following modifications. Briefly, JVM-3 B cells were sub-cultured and transferred to media without FBS. A migration assay was performed using 24-well format Transwell membranes (Sigma-Corning; 5 µm pore size) containing 1 × 10^6 JVM-3 cells in the upper chamber. […] As positive control, 8 nM CXCL12 was used. Wells without chemoattractant served as negative control and were used to normalize migration effects to ‘chemotactic index’ (number of migrated cells in the presence of chemoattractant divided by the number of migrated cells in the absence of the chemoattractant) – as described previously. […] Cells were allowed to migrate for 24 h. After migration, cells in the lower chamber were counted using Countbright absolute counting beads (Invitrogen) using a FACSVerse flow cytometer (BD Biosciences, Heidelberg, Germany).

[2] = tested on: JVM-3 B cells (CXCR4-expressing); experiment: lymphocyte chemotaxis assay, JVM-3 B cells (chemoattractant); type: cell-based, human; conditions: for chemotactic effect compared with another chemoattractant: WT-MIF compared with CXCL12, RLR mutant compared with WT-MIF
Description: JVM-3 cells (ACC-18) are a chronic B cell leukemia cell line and were kindly provided by Prof. M. Hallek, University of Cologne Medical School, Cologne, Germany. JVM-3 were grown in RPMI media with 1% penicillin/streptomycin and 10% fetal bovine serum (Invitrogen-Thermo Fisher Scientific, Karlsruhe, Germany) essentially as described previously. Miscellaneous cell culture reagents also were bought from Invitrogen-Thermo Fisher Scientific and from PAA (Pasching, Austria). LPS content of the purified WT-MIF and RLR mutant proteins was tested by limulus amoebocyte assay (LAL, Lonza, Cologne, Germany) following the manufacturer’s recommendation. All other reagents were obtained from Sigma, Merck, Roth, or Calbiochem, and were of the highest purity degree available.
as §1

[3] = circular dichroism spectroscopy; type: physicochemical; conditions: for aggregation-tendency: far-UV CD at 1, 2.5, and 5 µM, 10 mM sodium phosphate, pH 7.2, 25 °C
Description: CD spectroscopy provides a good estimation of the secondary structural profile of a protein and records relative changes in average secondary structural content, e.g. when a mutated protein is compared to its wildtype counterpart.
Far-UV circular dichroism (CD) spectra were recorded in a Jasco 700 CD spectropolarimeter (Jasco Labor- u. Datentechnik GmbH, Groß-Umstadt, Germany). Scans were recorded at 25 °C between 195 and 250 nm as an average of three scans and smoothed to obtain the final data. Spectra were collected at 1.0 nm intervals with a bandwidth of 1 nm in a buffer containing 10 mM sodium phosphate, pH 7.2. […] CD spectra are presented as a plot of mean residue ellipticities. […] Secondary structure fractions were quantitated by the Dichroweb online software webtool by deconvolutions of CD spectra using ContinLL at DichroWeb and the reference spectra set 7[43],[44].

[4] = size exclusion chromatography, oligomeric state; type: physicochemical; conditions: Superdex 75, 20 mM sodium phosphate, pH 7.2
Description: The mutant protein was eluted from the anion exchange column via salt gradient and subjected to size exclusion chromatography (SEC) for further purification.
Following Q sepharose, the protein was further purified by size exclusion chromatography (SEC, Superdex 75, GE Healthcare) in 20 mM sodium phosphate buffer, pH 7.2, i.e. buffer conditions compatible with MIF bioactivity.

[5] = molecular target: the molecule itself; experiment: SEC; Superdex 75 in 20 mM sodium phosphate buffer, pH 7.2, after Q sepharose; peaks at approximately 23 and 38 kDa
[6] = tested on: human CXCR4 expressed in S. cerevisiae; conditions: yeast CXCR4 signaling system, in comparison with CXCL12; cited from earlier work
Excerpt: To address the contribution of the RLR motif to MIF/CXCR4-specific cell signaling responses, we employed a genetically modified strain of Saccharomyces cerevisiae that replaces the yeast ste2 GPCR with human CXCR4 as previously reported. This cell system eliminates complications from mammalian cells that usually express more than one or all MIF cell surface receptors and is based on agonist-mediated activation of CXCR4 leading to a signaling cascade that results in β-galactosidase expression from the Fus1-lacZ reporter plasmid.

YSKLLCGLLAERLRI [MIF(76–90), RLR-spanning MIF peptide]
inhibition of WT-MIF-mediated JVM-3 chemotaxis ([1]; peptide 10 nM and 100 nM): ablated

ERLRISPDRVYINYY [MIF(86–100), RLR-spanning MIF peptide]
inhibition of WT-MIF-mediated JVM-3 chemotaxis ([1]; peptide 10 nM and 100 nM): trend towards inhibition | inhibition of WT-MIF-mediated JVM-3 chemotaxis ([1]; peptide 1 µM): significant and complete blockade

B1: R87A-L88A-R89A-MIF (ligand, human, UniProt P14174 1-115, looked up)
chain: MPMFIVNTNVPRASVPDGFLSELTQQLAQATGKPPQYIAVHVVPDQLMAFGGSSEPCALCSLHSIGKIGGAQNRSYSKLLCGLLAEAAAISPDRVYINYYDMNAANVGWNNSTFA
notes: also called RLR mutant; MIF R87A-L88A-R89A triple mutant; source: E. coli BL21/DE3 (pET11b), purified (Q sepharose anion exchange, Superdex 75 SEC)
chemotactic activity on JVM-3 B cells ([2]; RLR mutant 8 nM, 16 nM, 32 nM, p = ns, 24 h, Transwell 5 µm): did not exhibit a significant chemotactic activity | chemotactic activity on JVM-3 lymphocytes ([2]; RLR mutant 16 nM (optimal concentration of WT-MIF)): failed to show any chemotactic activity | chemotactic activity on JVM-3 lymphocytes ([2]; RLR mutant 32 nM, effect did not reach statistical significance): slight increase in activity | chemotactic effect compared with another chemoattractant [2]: Impaired chemotactic effect | chemotactic effect compared with another chemoattractant ([2]; listed as MIF R87A-L88A-R89A triple mutant): reduced cell migratory response | chemotactic effect compared with another chemoattractant ([2]; listed as RLR-mutant of MIF): reduction | increase of random coil content vs WT-MIF ([3]; CD deconvolution by Dichroweb): approximately 20% | reduction of α-helix content vs WT-MIF ([3]; CD deconvolution by Dichroweb): 12% | reduction of β-strand percentage vs WT-MIF ([3]; CD deconvolution by Dichroweb): 7% | decrease in ordered secondary structural content vs WT-MIF ([3]; CD spectroscopy): 20% | aggregation-tendency [3]: neither protein showed an aggregation-tendency | approximate molecular size of SEC peak, first species ([4]; suggests dimers): ~23 kDa | approximate molecular size of SEC peak, second species ([4]; suggests trimers): ~38 kDa | stoichiometry N [5]: 2 and 3

B2: macrophage migration inhibitory factor (protein, UniProt P14174 2-115, looked up)
Macrophage migration …: PMFIVNTNVPRASVPDGFLSELTQQLAQATGKPPQYIAVHVVPDQLMAFGGSSEPCALCSLHSIGKIGGAQNRSYSKLLCGLLAERLRISPDRVYINYYDMNAANVGWNNSTFA
notes: recombinant human MIF
chemotactic effect compared with another chemoattractant [2]: lower than that of CXCL12 | aggregation-tendency [3]: neither protein showed an aggregation-tendency | type of agonism at CXCR4 [6]: partial allosteric agonism
